Key:
[1] = molecular target: B7 antigen (B7/BB-1, B7-1) on the cell surface (human) (UniProt P33681); assay: cell-based or functional assay
[2] = molecular target: B7 Ig fusion protein (human) [IgG part: P01857]; assay: solid phase competition: 125I-B7 Ig binding to immobilized CTLA4 Ig
B7 Ig fusion protein = molecular target: T1, B7 Ig fusion protein (human, UniProt P01857-1 99-330 = IgG part, limits assumed, 125I label in the solid phase binding assays); assay: FACS, indirect immunostaining of transfected COS cells
T1 construct: domain: hinge, CH2 and CH3 regions; Made as in Linsley et al. 1991; also called B7IgCγ1

inhibition of Th-induced IgM production [1] [%] | IC50 [2] [nM] | binding result (B7 Ig fusion protein) | Molecule
65 | 22 |  | murine monoclonal antibody BB-1 (anti-B7 antigen)
 |  | no binding (tested: 10 µg/ml) | CD7 expressed on transfected COS cells (receptor, UniProt P09564 26-240, looked up, whole, on cells; Control transfectant; also called CD7-transfected COS cells) AQEVQQSPHCTTVPVGASVNITCSTSGGLRGIYLRQLGPQPQDIIYYEDGVVPTTDRRFRGRIDFSGSQDNLTITMHRLQLSDTGTYTCQAITEVNVYGSGTLVLVTEEQSQGWHRCSDAPPRASALPAPPTGSALPDPQTASALPDPPAASALPAALAVISFLLGLGLGVACVLARTQIKKLCSWRDKNSAACVVYEDMSHSRCNTLSSPNQYQ

— patent US6887471
